Data on 3 molecules can be found in patent US20240181075A1 (EMERGENCE THERAPEUTICS, published 2024).

The target of assay [1] is T1, Nectin-4 IgV-like domain Fc fusion recombinant protein (Nec4-V) (human, UniProt Q96NY8 32-146, limits assumed).
T1 construct: domain: IgV-like domain; also called Nectin-4-V-Fc; not shown: Fc part
T1 sequence (looked up): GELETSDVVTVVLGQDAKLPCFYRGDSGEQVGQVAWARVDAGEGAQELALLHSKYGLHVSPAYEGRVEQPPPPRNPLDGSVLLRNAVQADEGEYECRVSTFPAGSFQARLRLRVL
In words: ELISA, plate coated with Nec4-V Fc fusion, peroxidase-conjugated antibody. On the procedure:
(§1) Detection by ELISA. [0433]
(§2) One hundred μL of peroxidase substrate was added (One Step ABST, Pierce), and OD was red at 405 nm.

In assay [2] the target is T2, human Nectin-4 with N-terminal Flag epitope tag, expressed on transfected MDA-MB231 cells (human, UniProt Q96NY8 32-510).
T2 construct: whole, on cells; also called PVRL4 cDNA in p3XFLR4.C1
T2 sequence (looked up): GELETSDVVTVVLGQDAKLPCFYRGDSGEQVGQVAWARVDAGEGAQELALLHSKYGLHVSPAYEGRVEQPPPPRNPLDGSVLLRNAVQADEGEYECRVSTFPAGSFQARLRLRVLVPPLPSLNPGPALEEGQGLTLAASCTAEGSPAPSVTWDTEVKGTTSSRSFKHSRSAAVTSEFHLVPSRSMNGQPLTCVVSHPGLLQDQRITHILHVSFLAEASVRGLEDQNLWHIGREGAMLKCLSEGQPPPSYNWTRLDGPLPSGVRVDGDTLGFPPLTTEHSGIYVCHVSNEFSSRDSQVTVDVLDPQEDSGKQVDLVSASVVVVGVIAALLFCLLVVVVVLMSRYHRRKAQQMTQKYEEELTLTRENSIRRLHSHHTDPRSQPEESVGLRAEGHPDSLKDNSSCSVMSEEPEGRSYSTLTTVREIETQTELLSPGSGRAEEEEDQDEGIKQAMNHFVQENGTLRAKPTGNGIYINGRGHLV
In words: flow cytometry on MDA-MB231 cells transfected with N-terminal Flag-tagged Nectin-4, anti-human Fc PE detection. The text has this:
Detection by flow cytometry. [0431] […] Cells were then stained with phycoerythrin conjugate goat anti human Fc antibody. The normalized mean fluorescence intensity is shown. […] Mean fluorescence intensity is represented.
(Flow cytometry measures light scatter and fluorescence of single cells or particles in a stream.)

For assay [3], the target named is T3, Nectin-4 extracellular domain Fc fusion recombinant protein (Nec4-VCC) (human, UniProt Q96NY8 32-349).
T3 construct: extracellular domain; also called Nectin-4-VCC-Fc; not shown: Fc part
T3 sequence (looked up): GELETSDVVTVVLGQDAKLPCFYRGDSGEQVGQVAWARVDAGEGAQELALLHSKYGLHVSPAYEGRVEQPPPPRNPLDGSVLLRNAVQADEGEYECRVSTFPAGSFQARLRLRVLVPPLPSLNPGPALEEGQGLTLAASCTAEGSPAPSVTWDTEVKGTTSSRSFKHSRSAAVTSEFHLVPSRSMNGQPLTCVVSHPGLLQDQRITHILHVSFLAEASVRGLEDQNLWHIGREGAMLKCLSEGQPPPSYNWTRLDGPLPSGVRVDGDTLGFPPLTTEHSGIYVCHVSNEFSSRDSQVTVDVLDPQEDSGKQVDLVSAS
In words: ELISA, plate coated with Nec4-VCC Fc fusion, peroxidase-conjugated antibody. On the procedure:
as §1, §2
In general terms: An ELISA detects its analyte on a solid surface through an enzyme-linked reagent.

In assay [4] the target is T4, Nectin-1 extracellular domain Fc fusion recombinant protein (Nec1-VCC) (UniProt Q15223 31-355, limits assumed).
T4 construct: extracellular domain; also called Nectin-1-VCC-Fc; not shown: Fc part
T4 sequence (looked up): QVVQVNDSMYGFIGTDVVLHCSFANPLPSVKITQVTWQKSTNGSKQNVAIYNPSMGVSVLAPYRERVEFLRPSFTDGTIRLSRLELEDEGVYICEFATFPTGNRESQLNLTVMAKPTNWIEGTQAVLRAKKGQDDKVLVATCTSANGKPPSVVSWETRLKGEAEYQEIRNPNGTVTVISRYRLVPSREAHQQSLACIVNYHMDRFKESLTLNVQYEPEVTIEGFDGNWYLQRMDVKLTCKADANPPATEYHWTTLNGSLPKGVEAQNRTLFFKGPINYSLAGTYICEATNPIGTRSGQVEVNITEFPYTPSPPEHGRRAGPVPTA
In words: ELISA, plate coated with Nec1-VCC Fc fusion protein. On the procedure:
as §1, §2

The target in assay [5] is T5, human Nectin-4 on cells (CHO cells transfected with human Nectin-4 cDNA); SUM190 tumor cells; normal … (human, UniProt Q96NY8 32-510).
T5 construct: whole, on cells; The cell type that carried it is named under assay in each row; also called PVRL4; PRR4
T5 sequence (looked up): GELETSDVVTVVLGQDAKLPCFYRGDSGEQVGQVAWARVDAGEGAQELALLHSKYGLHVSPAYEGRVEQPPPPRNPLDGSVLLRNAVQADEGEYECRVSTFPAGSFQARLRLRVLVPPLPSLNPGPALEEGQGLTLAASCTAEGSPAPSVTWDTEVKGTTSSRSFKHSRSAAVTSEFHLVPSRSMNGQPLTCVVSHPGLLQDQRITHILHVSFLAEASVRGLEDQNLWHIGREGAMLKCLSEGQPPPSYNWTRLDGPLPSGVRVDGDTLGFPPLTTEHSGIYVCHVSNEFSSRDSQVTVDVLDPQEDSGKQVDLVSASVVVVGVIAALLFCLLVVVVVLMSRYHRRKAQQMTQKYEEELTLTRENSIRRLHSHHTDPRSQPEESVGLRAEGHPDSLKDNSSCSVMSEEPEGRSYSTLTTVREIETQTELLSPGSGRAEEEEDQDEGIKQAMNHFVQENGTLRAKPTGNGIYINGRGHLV
The assay can be described thus: flow cytometry on normal differentiated human keratinocytes (NHEK), compared with SUM190 tumor cells.

The target of assay [6] is T3, Nectin-4 extracellular domain Fc fusion …. In words: statement in the legend of the competition ELISA on coated Nec4-VCC. On the procedure: Competition assay was performed by ELISA. [0435] Ninety-six-wells plates were coated with 5 μg/mL of Nectin-4 extracellular domain Fc fusion recombinant protein (Nec4-VCC) overnight at 4° C.
as §2

Assay [7] concerns the target T5, human Nectin-4 on cells (CHO cells …). The assay can be described thus: flow cytometry on normal differentiated human keratinocytes (NHEK); reference antibody of the comparison.

B1: Ch-15A7.5 (chimeric anti-Nectin-4 monoclonal antibody 15A7.5) (antibody, V domains shown)
VH: EVKLVESGGGLVQPGGSRKLSCAASGFTFSNYGMAWVRQAPGKGPEWVAFISNLAYGINYADTVTGRFTISRENAKNTLYLEMRSLRSEDTAMYYCARGARATGWFAYWGQGTLVTVSA
VL: DIVMTQSQKFMSTSIGDRVSVTCKASQNVDTHVAWYQEKPGQSPKALIYSASYRYSGVPDRFTGSGSGTDFTLTISNVQSEDLADYFCQQYNSYPLTFGGGTKLEIK
notes: also called Ch-15A7.5 mAb; Ch-15A7 mAb
Regarding B1, the binding result is given as “binds” in assay [1]; “binds” in assay [2]; “binds” in assay [3]; “no binding” in assay [4]; “binds” in assay [5].

B2: HA22 (Enfortumab), human monoclonal anti-Nectin-4 antibody (antibody, V domains shown)
VH: EVQLVESGGGLVQPGGSLRLSCAASGFTFSSYNMNWVRQAPGKGLEWVSYISSSSSTIYYADSVKGRFTISRDNAKNSLSLQMNSLRDEDTAVYYCARAYYYGMDVWGQGTTVTVSS
VL: DIQMTQSPSSVSASVGDRVTITCRASQGISGWLAWYQQKPGKAPKFLIYAASTLQSGVPSRFSGSGSGTDFTLTISSLQPEDFATYYCQQANSFPPTFGGGTKVEIK
notes: also called Enfortumab (HA22); HA22 mAb
For B2, the binding result in assay [6] is listed as “binds”.

B3: Ch-5A12.2 (chimeric anti-Nectin-4 monoclonal antibody 5A12.2) (antibody, V domains shown)
VH: QIQLQQSGAELVKPGASVTLSCKTSGFTFNSMYISWLKQKPGQSLEWIAWIYAGTGGTRFNQKFTGKVQLTVDTSSSTAYMQFSSLTTDDSAIYYCAIRSGFVPMDYWGQGTSVTVSS
VL: SIVMTQTPKFLLVSAGDRVTITCKASQSVSNDVAWYQQKPGQSPKLLIYYASNRYTGVPDRFTGSGYGTDFTFTISTVQAEDLAVYFCQQDYSSPWTFGGGTKLEIK
notes: also called Ch-5A12.2 mAb; 5A12.2 mAb
With B3, the binding result in assay [2] and in assay [7] was “binds” each time.
